Experimental data from patent US20240092891A1.

Target: human CLDN18.1 (human) (UniProt P56856)
Experiment: flow cytometry on human CLDN18.1-HEK293 cells, antibody at 100 µg/mL

Sequence of human CLDN18.1 (human) (P56856 whole entry): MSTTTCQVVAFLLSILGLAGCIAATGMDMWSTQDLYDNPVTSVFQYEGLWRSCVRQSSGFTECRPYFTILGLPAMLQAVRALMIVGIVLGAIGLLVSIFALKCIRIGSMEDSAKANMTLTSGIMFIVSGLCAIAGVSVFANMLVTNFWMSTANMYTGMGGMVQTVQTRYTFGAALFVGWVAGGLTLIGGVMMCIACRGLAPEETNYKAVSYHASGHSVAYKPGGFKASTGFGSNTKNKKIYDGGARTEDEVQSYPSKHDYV

B1: humanized antibody NA7-S-H2 (Fc fusion, not shown: a dimerising Fc or GST)
chain: EVQLVESGGGLVQPGGSLRLSCAASGSFFRIVAMGWYRQAPGKGRELVATITRGGSTYYADSMKGRSTISRDNAKNTVYLQMNSLKPEDTAVYYCNVRVEVPFMQPNDYWGQGTLVTVSS
  positive rate of cell binding: 5.5%
